# Data: paper PMC4861126
# B1: Dictyostelium RA-TalB domain (residues 1-122) (domain or fragment)
# chain: MSLTLKIQIVRDKQVKAMKFSPTQTVAEVCAQVREKINETSGDDHGLFQPGIDAKRPSRWLKMDKTLQFYDLKINDELDYKKKHRPLKVRLMDETVKTMLVDDSLTAGEILEIIGKRIGIKN
# Target: Rap1 preloaded with mGppNHp (GDI assay) (Dictyostelium) (UniProt P18613)
# Test: GDI (guanine nucleotide dissociation inhibition) assay, fluorescence; mGppNHp labelled G-protein with indicated amounts of RA-TalB, 200 fold excess of GppNHp, 25 °C; 50 mM Tris-HCl pH 7.5, 5 mM MgCl2, 50 mM NaCl, 5 mM DTE; Kd from dependence of kobs on RA-TalB concentration
# Chain of UniProt P18613 (P18613 whole entry): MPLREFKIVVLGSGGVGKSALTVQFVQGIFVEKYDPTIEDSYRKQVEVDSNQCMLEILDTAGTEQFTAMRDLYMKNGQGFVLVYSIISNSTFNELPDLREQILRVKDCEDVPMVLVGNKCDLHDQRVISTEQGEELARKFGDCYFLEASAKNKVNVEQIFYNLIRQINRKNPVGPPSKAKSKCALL
binder,measurement,value
B1,Kd,19.9 µM
